# Results: the supplement of paper PMC9112550, “Optimization of the antimicrobial peptide Bac7 by deep mutational scanning” (BMC Biology, 2022)
# Tested on: Escherichia coli TOP10
# Experiment: shrunken log2 fold change of peptide-encoding DNA abundance (4.5 h post-induction vs induction); higher = less antimicrobial activity (less host growth inhibition)
# Settings: time post-induction: 4.5 h; library: site-saturation at positions 5, 18, 19, 20
# 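Note: peptides expressed intracellularly from a pBAD plasmid library in pooled LB shake-flask culture, induced with 0.3% L-arabinose, DNA abundance read by NGS, three biological replicates, DESeq2 with apeglm shrinkage.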
row,Sequence,shrunken log2 fold change
1,RRIRERPPRLPRPRPRPQDKPRP,-0.0918
2,RRIRLRPPRLPRPRPRPERKPRP,-0.0366
3,RRIRHRPPRLPRPRPRPANDPRP,-0.0802
4,RRIRNRPPRLPRPRPRPFQHPRP,-0.00968
5,RRIRRRPPRLPRPRPRPRMLPRP,0.486
6,RRIRVRPPRLPRPRPRPEIHPRP,-0.0841
7,RRIRDRPPRLPRPRPRPLERPRP,0.464
8,RRIRNRPPRLPRPRPRPPKDPRP,0.131
9,RRIRSRPPRLPRPRPRPHDHPRP,-0.23
10,RRIRTRPPRLPRPRPRPDNGPRP,-0.225
11,RRIRKRPPRLPRPRPRPKECPRP,0.121
12,RRIRWRPPRLPRPRPRPVDEPRP,0.0343
13,RRIRIRPPRLPRPRPRPIVHPRP,-0.642
14,RRIRWRPPRLPRPRPRPAGPPRP,0.235
15,RRIRIRPPRLPRPRPRPFEAPRP,-0.151
16,RRIRARPPRLPRPRPRPVCNPRP,0.0721
17,RRIRPRPPRLPRPRPRPYMNPRP,-1.01
18,RRIRPRPPRLPRPRPRPRGQPRP,0.204
19,RRIRNRPPRLPRPRPRPHLSPRP,-0.259
20,RRIRRRPPRLPRPRPRPHAAPRP,0.837
21,RRIRLRPPRLPRPRPRPPDSPRP,0.0353
22,RRIRPRPPRLPRPRPRPVPDPRP,0.00557
23,RRIRCRPPRLPRPRPRPFLYPRP,-0.513
24,RRIRPRPPRLPRPRPRPFYYPRP,-0.838
25,RRIRCRPPRLPRPRPRPQERPRP,-0.028

row,Sequence,shrunken log2 fold change
1,RRIRYRPPRLPRPRPRPLIKPRP,-0.386
2,RRIRSRPPRLPRPRPRPGYIPRP,-0.0571
3,RRIRMRPPRLPRPRPRPKFQPRP,0.549
4,RRIRGRPPRLPRPRPRPYQWPRP,0.0268
5,RRIRWRPPRLPRPRPRPDFYPRP,-0.11
6,RRIRFRPPRLPRPRPRPEMNPRP,-0.253
7,RRIRCRPPRLPRPRPRPLGCPRP,0.347
8,RRIRCRPPRLPRPRPRPILQPRP,-0.0117
9,RRIRYRPPRLPRPRPRPMPFPRP,0.00489
10,RRIRTRPPRLPRPRPRPFLTPRP,0.153
11,RRIRFRPPRLPRPRPRPHFDPRP,-0.107
12,RRIRARPPRLPRPRPRPWINPRP,-0.218
13,RRIRMRPPRLPRPRPRPPPSPRP,1.95
14,RRIRFRPPRLPRPRPRPQIYPRP,-1.01
15,RRIRNRPPRLPRPRPRPQKEPRP,-0.0193
16,RRIRQRPPRLPRPRPRPGQAPRP,0.0026
17,RRIRIRPPRLPRPRPRPCMCPRP,-0.422
18,RRIRVRPPRLPRPRPRPTVYPRP,-0.0885
19,RRIRTRPPRLPRPRPRPFAIPRP,0.061
20,RRIRVRPPRLPRPRPRPTIGPRP,0.178
21,RRIRERPPRLPRPRPRPLDCPRP,-0.161
22,RRIRMRPPRLPRPRPRPKAHPRP,0.892
23,RRIRSRPPRLPRPRPRPFMRPRP,0.0496
24,RRIRERPPRLPRPRPRPPRKPRP,0.387
25,RRIRWRPPRLPRPRPRPDTIPRP,-0.019

row,Sequence,shrunken log2 fold change
1,RRIRARPPRLPRPRPRPFMSPRP,-0.0065
2,RRIRYRPPRLPRPRPRPTEDPRP,-0.166
3,RRIRSRPPRLPRPRPRPYWAPRP,-0.177
4,RRIRMRPPRLPRPRPRPVDCPRP,0.029
5,RRIRNRPPRLPRPRPRPANLPRP,-0.342
6,RRIRPRPPRLPRPRPRPFPMPRP,-0.175
7,RRIRMRPPRLPRPRPRPWKLPRP,-0.133
8,RRIRVRPPRLPRPRPRPFVWPRP,-0.03
9,RRIRQRPPRLPRPRPRPPLTPRP,0.0676
10,RRIRMRPPRLPRPRPRPYCLPRP,0.146
11,RRIRYRPPRLPRPRPRPKHDPRP,-0.648
12,RRIRHRPPRLPRPRPRPHMYPRP,-0.0666
13,RRIRQRPPRLPRPRPRPGVRPRP,-0.0485
14,RRIRIRPPRLPRPRPRPCTCPRP,-0.652
15,RRIRHRPPRLPRPRPRPGCGPRP,0.417
16,RRIRNRPPRLPRPRPRPQPMPRP,-0.111
17,RRIRWRPPRLPRPRPRPNVEPRP,-0.319
18,RRIRRRPPRLPRPRPRPYASPRP,-0.0782
19,RRIRSRPPRLPRPRPRPNGSPRP,-0.21
20,RRIRGRPPRLPRPRPRPELCPRP,0.18
21,RRIRCRPPRLPRPRPRPKTWPRP,0.0688
22,RRIRWRPPRLPRPRPRPIGRPRP,-0.0158
23,RRIRSRPPRLPRPRPRPNFEPRP,-0.068
24,RRIRTRPPRLPRPRPRPTMNPRP,-0.371
25,RRIRRRPPRLPRPRPRPTYNPRP,-0.267

row,Sequence,shrunken log2 fold change
1,RRIRCRPPRLPRPRPRPTNEPRP,-0.213
2,RRIRPRPPRLPRPRPRPFENPRP,-0.00884
3,RRIRERPPRLPRPRPRPSMIPRP,-0.171
4,RRIRKRPPRLPRPRPRPNTRPRP,-0.0607
5,RRIRFRPPRLPRPRPRPFKEPRP,-0.173
6,RRIRKRPPRLPRPRPRPGEDPRP,0.0621
7,RRIRARPPRLPRPRPRPSWTPRP,-0.392
8,RRIRNRPPRLPRPRPRPMEKPRP,0.0048
9,RRIRHRPPRLPRPRPRPVHGPRP,0.131
10,RRIRFRPPRLPRPRPRPQANPRP,-0.0788
11,RRIRYRPPRLPRPRPRPTVCPRP,-0.0618
12,RRIRDRPPRLPRPRPRPFEAPRP,0.277
13,RRIRGRPPRLPRPRPRPHKIPRP,0.11
14,RRIRFRPPRLPRPRPRPRWMPRP,-0.149
15,RRIRLRPPRLPRPRPRPGYRPRP,-0.16
16,RRIRRRPPRLPRPRPRPHYMPRP,-0.126
17,RRIRNRPPRLPRPRPRPKMEPRP,0.015
18,RRIRCRPPRLPRPRPRPAGHPRP,0.0641
19,RRIRTRPPRLPRPRPRPQFFPRP,-0.11
20,RRIRTRPPRLPRPRPRPIHFPRP,-0.00174
21,RRIRNRPPRLPRPRPRPCLEPRP,0.000258
22,RRIRHRPPRLPRPRPRPITCPRP,-0.0107
23,RRIRHRPPRLPRPRPRPITYPRP,-0.184
24,RRIRRRPPRLPRPRPRPQKCPRP,-0.288
25,RRIRHRPPRLPRPRPRPASGPRP,0.368

row,Sequence,shrunken log2 fold change
1,RRIRHRPPRLPRPRPRPPHEPRP,0.181
2,RRIRARPPRLPRPRPRPNNRPRP,-0.326
3,RRIRDRPPRLPRPRPRPHEHPRP,0.00488
4,RRIRLRPPRLPRPRPRPALIPRP,-0.00882
5,RRIRTRPPRLPRPRPRPFRHPRP,0.00803
6,RRIRKRPPRLPRPRPRPEERPRP,1.23
7,RRIRNRPPRLPRPRPRPFCLPRP,-0.363
8,RRIRRRPPRLPRPRPRPNYAPRP,0.0933
9,RRIRKRPPRLPRPRPRPDPYPRP,-0.0561
10,RRIRKRPPRLPRPRPRPLQIPRP,0.0389
11,RRIRGRPPRLPRPRPRPSVQPRP,-0.0165
12,RRIRVRPPRLPRPRPRPHTVPRP,-0.448
13,RRIRTRPPRLPRPRPRPHPWPRP,-0.0609
14,RRIRYRPPRLPRPRPRPMTKPRP,0.0153
15,RRIRDRPPRLPRPRPRPELGPRP,1.53
16,RRIRPRPPRLPRPRPRPVYPPRP,3.41
17,RRIRTRPPRLPRPRPRPQQNPRP,-0.0459
18,RRIRARPPRLPRPRPRPTYDPRP,-0.0892
19,RRIRGRPPRLPRPRPRPNDNPRP,0.19
20,RRIRERPPRLPRPRPRPPNRPRP,-0.289
21,RRIRARPPRLPRPRPRPFLFPRP,0.162
22,RRIRPRPPRLPRPRPRPNTFPRP,-0.0232
23,RRIRRRPPRLPRPRPRPETGPRP,0.304
24,RRIRLRPPRLPRPRPRPYYIPRP,-0.982
25,RRIRKRPPRLPRPRPRPDQEPRP,0.0193

row,Sequence,shrunken log2 fold change
1,RRIRNRPPRLPRPRPRPHYWPRP,-0.388
2,RRIRFRPPRLPRPRPRPPHGPRP,0.364
3,RRIRWRPPRLPRPRPRPAGWPRP,0.922
4,RRIRWRPPRLPRPRPRPEFCPRP,0.335
5,RRIRHRPPRLPRPRPRPSLIPRP,0.954
6,RRIRYRPPRLPRPRPRPMLPPRP,-0.0473
7,RRIRFRPPRLPRPRPRPRGEPRP,0.125
8,RRIRERPPRLPRPRPRPIHAPRP,0.0259
9,RRIRTRPPRLPRPRPRPCKWPRP,-0.000493
10,RRIRARPPRLPRPRPRPSATPRP,1.26
11,RRIRFRPPRLPRPRPRPKEMPRP,-0.0141
12,RRIRHRPPRLPRPRPRPRKPPRP,0.321
13,RRIRNRPPRLPRPRPRPLSNPRP,-0.386
14,RRIRCRPPRLPRPRPRPHVAPRP,-0.0172
15,RRIRVRPPRLPRPRPRPLVRPRP,0.0251
16,RRIRMRPPRLPRPRPRPQTSPRP,0.339
17,RRIRDRPPRLPRPRPRPFSKPRP,-0.488
18,RRIRERPPRLPRPRPRPNYGPRP,-0.0315
19,RRIRNRPPRLPRPRPRPNASPRP,0.374
20,RRIRYRPPRLPRPRPRPPYCPRP,-0.287
21,RRIRDRPPRLPRPRPRPIGTPRP,0.208
22,RRIRFRPPRLPRPRPRPLYQPRP,-0.374
23,RRIRCRPPRLPRPRPRPGEEPRP,0.135
24,RRIRMRPPRLPRPRPRPLWPPRP,0.616
25,RRIRCRPPRLPRPRPRPQHRPRP,-0.246
